Experimental data reported in US7718626B2, “ErbB3 binding protein compositions and methods of use” (University of Maryland, Baltimore, priority 2005, dated 2010).

System: AR-regulated gene mRNA in LNCaP cells
Assay: Real-time quantitative reverse-transcription PCR of LNCaP ebp1 transfectants
Type: cell-based, human
Protocol: Real-Time Quantitative Reverse-Transcription PCR: The method of […] et al. (Nakanishi et al., 2003, Quantitative Analysis of Breast Cancer Resistance Protein and Cellular Resistance to Flavopiridol in Acute Leukemia Patients, Clin. Cancer Res., 9: 3320-3328) was used as previously described. […] Real-time quantitative RT-PCR was then performed on the LightCycler (Roche, Indianapolis, Ind.) platform to determine the relative mRNA levels of Ebp1, AR, kallikrein-2 and POV-1. The following forward and reverse primers were selected using Primer Express software and synthesized by Core Laboratory of University of Maryland School of Medicine: Ebp1, sense: […] [NT] ID NO: 6) and antisense: 5° […] ID NO: 7), Kallikrein-2, sense: [NT] ID NO: 8) and antisense: [NT] ID NO: 9), POV-1, sense: [NT] ID NO: 10) and antisense: [NT] ID NO: 11), Actin, sense: [NT] ID NO: 12) and antisense […] ID NO: 13). An SRBR Green PCR Kit was used (Applied Biosystems, Foster City, Calif.), and the analyses were performed in duplicate or triplicate in a total volume of 15 μl including 0.9 μl of 25 mM MgCl2, 1.5 μl SYBR Green I, 0.3 μl Enzyme Mix, 0.75 μl of each primer (50 ng/μl), and 2 μl of cDNA synthesized with random hexamers. Target mRNA values were normalized using actin mRNA as an internal control. The relative quantitation of gene expression was performed using the comparative ΔΔ Ct (threshold method) using β-actin as an internal control ([…] et al., 2002, The Nonsteroidal Anti-Inflammatory Drug Sulindac Causes Down-Regulation of Signal Transducer and Activator of Transcription 3 in Human Oral Squamous Cell Carcinoma Cells, Cancer Research, 62:1004-1007). The results of the microarray analysis were validated using real-time quantitative reverse-transcription PCR, Western blot, and ELISA methods. […] The expression of POV-1 mRNA and protein were each decreased about two-fold. PSA secretion in the conditioned media of ebp1 and vector control cells was assessed by ELISA. […] Finally, […]-2 mRNA expression was decreased approximately 40%.

B1: Ebp1: ErbB3 binding protein (SEQ ID NO: 2), tested by stable ectopic expression (ebp1 transfection) in LNCaP cells (protein)
chain: MSGEDEQQEQTIAEDLVVTKYKMGGDIANRVLRSLVEASSSGVSVLSLCEKGDAMIMEETGKIFKKEKEMKKGIAFPTSISVNNCVCHFSPLKSDQDYILKEGDLVKIDLGVHVDGFIANVAHTFVVDVAQGTQVTGRKADVIKAAHLCAEAALRLVKPGNQNTQVTEAWNKVAHSFNCTPIEGMLSHQLKQHVIDGEKTIIQNPTDQQKKDHEKAEFEVHEVYAVDVLVSSGEGKAKDAGQRTTIYKRDPSKQYGLKMKTSRAFFSEVERRFDAMPFTLRAFEDEKKARMGVVECAKHELLQPFNVLYEKEGEFVAQFKFTVLLMPNGPMRITSGPFEPDLYKSEMEVQDAELKALLQSSASRKTQKKKKKKASKTAENPTSGETLEENEAGD
modifications: Homo Sapien
**Q.** What does the source list for B1?
**A.** POV-1 mRNA decrease: about two-fold; kallikirein-2 mRNA expression decrease: approximately 40%; AR mRNA down-regulation (real-time PCR): more than 2 fold
